According to US11344542B2, “Treatment of aging-associated disease with modulators of leukotriene A4 hydrolase” (Alkahest, Inc., priority 2018, dated 2022):

What was measured:
Assay type in all cases: in vivo, mouse
[1] = tested on: 8-week old (young) wild-type (C57BL/6) mice; experiment: Y-maze in young mice treated with recombinant human LTA4H protein
Experimental: A large Y-maze test assessed short-term memory of the familiarity of a specific context. Mice were brought to the experimental room for at least 30 min of acclimation to the experimental room conditions (dim lighting) prior to testing. For the initial training trial, the mouse was placed at the end of one arm of a large Y-maze designated “start arm” (arm length: 15 inches). The third arm of the maze was blocked off, allowing the mouse to explore two of the three arms freely (“start arm” and “familiar arm”) for 5 min. Each arm contained spatial cues. Three hours later, the mouse was placed back into the maze in the “start arm,” and allowed to explore all three arms with the third arm unblocked (“novel arm”). Movements in and out of each arm were tracked using automated tracking software (CleverSys or San Diego Instruments). Testing was performed under dim lighting, and the apparatus was cleaned with 70% ethanol between trials. The time spent and number of entireties into the “novel arm” and “familiar arm” were analyzed, as well as total distance travelled and velocity as measures of general locomotor activity.
(§1) The initial study in young, 8-week old wild-type (WT; C57BL/6) mice was repeated in a second cohort of mice with additional timepoints and readouts. Mice were homogenized between 3 treatment groups by body weight. Group 1 (Vehicle) was injected intravenously (IV) with PBS control 3 times per week for 6 weeks, group 2 (LTA4H Pulse) with recombinant human LTA4H protein daily for 7 consecutive days, and group 3 (LTA4H Continuous) with recombinant human LTA4H protein 3 times per week for 6 weeks. In week 4 after the initiation of dosing, mice in all treatment groups were injected IP with BrdU (5-bromo-2′-deoxyuridine) formulated in PBS (phosphate buffered saline) at a final concentration of 10 mg/mL dosed at 150 mg/kg for 5 days. Behavioral assays were executed in week 5 and 6, and animals were sacrificed, and tissues collected immediately after completion of behavior testing in week 6. FIG. 10 depicts the treatment paradigm and injection timing for the study. […]

[2] = tested on: granule cell layer of the dentate gyrus; experiment: Histology of labeled proliferating cells (EdU, Ki67, BrdU/DCX) in the dentate gyrus of young mice; conditions: for number of Ki67-labeled cells within the granule cell layer of the dentate gyrus: study week 6; for number of BrdU and DCX co-labeled cells within the granule cell layer of the dentate gyrus: BrdU in week 4
Experimental: (§2) Brains were collected following saline perfusion and separated by mid-sagittal slice with one-half drop fixed in freshly prepared 4% PFA. PFA was changed to 30% sucrose 24-48 hours later. A second change to 30% sucrose occurred 24 hours later. The second half was dissected into hippocampus and cortex and then snap frozen on dry ice.
(§3) Brain tissue was sectioned or lysed and analyzed for markers of neurogenesis and aging by standard histological and biochemical methods, including qRT-PCR, Western blot, ELISA, and immunohistochemistry.
Young, 8-week old wild-type (WT; C57BL/6) mice were homogenized between groups by body weight. Following group determination, mice were injected intraperitoneally (IP) with BrdU (5-bromo-2′-deoxyuridine) formulated in PBS (phosphate buffered saline) at a final concentration of 10 mg/mL dosed at 150 mg/kg for 5 days Immediately following the BrdU dosing, group 1 was injected intravenously (IV) with PBS control and group 2 with recombinant human LTA4H protein daily for 7 consecutive days. One week after the completion of LTA4H administration, in week 3, mice in both treatment groups were injected IP with EdU (5-ethynyl-2′-deoxyuridine) formulated in PBS at a final concentration of 10 mg/mL and dosed at 50 mg/kg for 5 days. Behavioral assays were executed in week 5 and 6, and animals were sacrificed, and tissues collected immediately after completion of behavior testing in week 6. FIG. 3 depicts the treatment paradigm and injection timing for the study.
The initial study in young, 8-week old wild-type (WT; C57BL/6) mice was repeated in a second cohort of mice with additional timepoints and readouts. Mice were homogenized between 3 treatment groups by body weight. Group 1 (Vehicle) was injected intravenously (IV) with PBS control 3 times per week for 6 weeks, group 2 (LTA4H Pulse) with recombinant human LTA4H protein daily for 7 consecutive days, and group 3 (LTA4H Continuous) with recombinant human LTA4H protein 3 times per week for 6 weeks. In week 4 after the initiation of dosing, mice in all treatment groups were injected IP with BrdU (5-bromo-2′-deoxyuridine) formulated in PBS (phosphate buffered saline) at a final concentration of 10 mg/mL dosed at 150 mg/kg for 5 days. Behavioral assays were executed in week 5 and 6, and animals were sacrificed, and tissues collected immediately after completion of behavior testing in week 6. FIG. 10 depicts the treatment paradigm and injection timing for the study.

[3] = tested on: microglia in the hippocampus; experiment: Histology of microglia markers (Iba1, CD68) in the hippocampus of young mice
Experimental: as §2, §3
as §1, with “days.” for “days. Behavioral assays were executed in week 5 and 6, and animals were sacrificed, and tissues collected immediately after completion of behavior testing in week 6. FIG. 10 depicts the treatment paradigm and injection timing for the study.”

B1: recombinant human LTA4H: Recombinant human LTA4H (Bio-techne, 4008-SN), leukotriene A4 hydrolase enzyme, dosed by tail vein i.v. injection (protein, UniProt P09960 2-611, looked up)
Leukotriene A-4 hydrolase: PEIVDTCSLASPASVCRTKHLHLRCSVDFTRRTLTGTAALTVQSQEDNLRSLVLDTKDLTIEKVVINGQEVKYALGERQSYKGSPMEISLPIALSKNQEIVIEISFETSPKSSALQWLTPEQTSGKEHPYLFSQCQAIHCRAILPCQDTPSVKLTYTAEVSVPKELVALMSAIRDGETPDPEDPSRKIYKFIQKVPIPCYLIALVVGALESRQIGPRTLVWSEKEQVEKSAYEFSETESMLKIAEDLGGPYVWGQYDLLVLPPSFPYGGMENPCLTFVTPTLLAGDKSLSNVIAHEISHSWTGNLVTNKTWDHFWLNEGHTVYLERHICGRLFGEKFRHFNALGGWGELQNSVKTFGETHPFTKLVVDLTDIDPDVAYSSVPYEKGFALLFYLEQLLGGPEIFLGFLKAYVEKFSYKSITTDDWKDFLYSYFKDKVDVLNQVDWNAWLYSPGLPPIKPNYDMTLTNACIALSQRWITAKEDDLNSFNATDLKDLSSHQLNEFLAQTLQRAPLPLGHIKRMQEVYNFNAINNSEIRFRWLRLCIQSKWEDAIPLALKMATEQGRMKFTRPLFKDLAAFDKSHDQAVRTYQEHKASMHPVTAMLVGKDLKVD
memory of the familiar arm in Y-maze testing (novel vs familiar arm entries) ([1]; paradigm 2: continuous dosing): impaired memory | memory of the familiar arm in Y-maze testing (novel vs familiar arm entries) ([1]; paradigm 2: pulse dosing): impaired memory | number of entries into the familiar arm during Y-maze training ([1]; paradigm 2: pulse or continuous dosing, vs PBS): no differences | number of EdU-labeled cells within the granule cell layer of the dentate gyrus ([2]; paradigm 1, EdU in week 3, vs PBS): significant decrease | number of Ki67-labeled cells within the granule cell layer of the dentate gyrus ([2]; paradigm 1, vs PBS, listed as human recombinant LTA4H protein): significant decrease | number of Ki67-labeled cells within the granule cell layer of the dentate gyrus ([2]; paradigm 1, vs PBS, listed as recombinant LTA4H): fewer Ki67 labeled cells | number of BrdU and DCX co-labeled cells within the granule cell layer of the dentate gyrus ([2]; paradigm 2: continuous dosing): significant decrease | number of BrdU and DCX co-labeled cells within the granule cell layer of the dentate gyrus ([2]; paradigm 2: pulse dosing): statistical trend towards a decrease | average number of Iba1-labeled cells in the hippocampus ([3]; paradigm 2: pulse dosing, relative to vehicle PBS): significant increase | average number of CD68-labeled cells in the hippocampus ([3]; paradigm 3: 10 days following pulse dosing (IV daily, 7 days), relative to PBS): significant increase
